Target: the molecule itself
Assay: native MS

B1: gp3(Δ1–152), C-terminal truncate of P22 terminase small subunit gp3 lacking ten amino acids (domain or fragment, bacteriophage P22, UniProt P04893 1-152, looked up)
chain: MAAPKGNRFWEARSSHGRNPKFESPEALWAACCEYFEWVEANPLWEMKAFSYQGEVIQEPIAKMRAMTITGLTLFIDVTLETWRTYRLREDLSEVVTRAEQVIYDQKFSGAAADLLNANIIARDLGLKEQSQVEDVTPDKGDRDKRRSRIKE
stoichiometry N: 9

Source: paper PMC2577774 (Journal of molecular biology, 2008)
